What was measured:
[1] = target: T1, human ICOS (full length, on cells) (human, UniProt Q9Y6W8 21-199); assay: cell-based ELISA on fixed, permeabilised CHO cells expressing human ICOS, chemiluminescence (RLU)
T1 construct: also called CHO-hICOS; human ICOS+ CHO cells
T1 sequence: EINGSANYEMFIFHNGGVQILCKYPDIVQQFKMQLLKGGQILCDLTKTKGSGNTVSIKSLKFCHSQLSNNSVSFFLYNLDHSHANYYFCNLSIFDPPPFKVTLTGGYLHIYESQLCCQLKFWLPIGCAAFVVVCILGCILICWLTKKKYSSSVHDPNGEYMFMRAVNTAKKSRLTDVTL
Procedure: Chinese Hamster ovary (CHO) cells stably transfected with ICOS overexpressing plasmid (CHO-ICOS) or control plasmid (CHO-vector) were used to screen positive clones from the peptide ELISA assay using established protocols. Briefly, cells grown in 96 well plates were fixed and permeabilized using 10% formalin with 0.1% Triton X-100. Following blocking, cells were incubated with primary antibody, followed by HRP-conjugated anti-mouse antibody. Detection was carried out using chemiluminescence substrate. Commercial anti-ICOS antibody, SP98 (Spring Biosciences) was used as a positive control and mouse IgG1 was used as a negative control for the assay.

[2] = target: T2, mouse ICOS-hFc (homodimeric, bivalent) (mouse; human, UniProt Q9WVS0 21-142); assay: BLI
T2 construct: also called mICOS-hFc; mouse ICOS-Fc; not shown: human IgG1 Fc (IgG1 backbone)
T2 sequence: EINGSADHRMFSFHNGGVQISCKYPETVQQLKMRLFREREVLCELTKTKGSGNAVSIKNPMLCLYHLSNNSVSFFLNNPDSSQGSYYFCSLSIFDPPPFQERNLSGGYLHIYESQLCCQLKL
Procedure: (§1) Cross-reactivity measurements were conducted using BLI technology with antibody panels being screened for binding to human, mouse, and cynomolgus ICOS-Fc fusions (homodimeric, bivalent forms).

[3] = target: T3, mouse ICOS (full length, on cells) (mouse, UniProt Q9WVS0 21-200); assay: flow cytometry on ICOS+ CHO cells
T3 construct: also called CHO-mICOS; mouse ICOS+ CHO cells
T3 sequence: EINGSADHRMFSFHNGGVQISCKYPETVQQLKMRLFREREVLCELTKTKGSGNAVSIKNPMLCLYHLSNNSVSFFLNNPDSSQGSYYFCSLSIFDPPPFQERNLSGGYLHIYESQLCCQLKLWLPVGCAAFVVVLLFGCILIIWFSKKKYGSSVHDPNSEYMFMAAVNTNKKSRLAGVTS
Excerpt: To assess specificity, binding to human ICOS+ CHO cells and mouse ICOS+ CHO cells was individually analyzed by flow cytometry. As a control to screen out pan-reactive antibodies, staining on CHO cells lacking ICOS receptor expression was also examined. All of the selected antibodies bound to human and mouse ICOS+ CHO cells, and not to CHO cells lacking ICOS expression.

[4] = target: T4, human ICOS-hFc (homodimeric, bivalent) (human, UniProt Q9Y6W8 21-141); assay: BLI, bivalent binding to homodimeric ICOS-Fc
T4 construct: also called hICOS-Fc; hICOS-hFc; not shown: human IgG1 Fc (IgG1 backbone)
T4 sequence: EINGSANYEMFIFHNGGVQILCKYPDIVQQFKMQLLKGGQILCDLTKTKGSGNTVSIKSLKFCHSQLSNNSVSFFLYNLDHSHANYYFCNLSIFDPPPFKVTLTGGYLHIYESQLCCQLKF
Procedure: as §1

[5] = target: T5, cynomolgus ICOS-Fc (homodimeric, bivalent) (cynomolgus monkey, UniProt Q9Y6W8 21-140 (human entry)); assay: BLI, bivalent binding to homodimeric ICOS-Fc
T5 construct: also called cynoICOS-Fc; cyno ICOS-Fc; not shown: human IgG1 Fc (IgG1 backbone)
T5 chain: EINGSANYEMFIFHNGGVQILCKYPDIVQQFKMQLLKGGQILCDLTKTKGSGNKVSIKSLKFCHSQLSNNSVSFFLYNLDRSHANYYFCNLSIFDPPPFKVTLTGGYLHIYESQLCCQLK
Procedure: as §1

[6] = target: T6, human CD28 Fc fusion (dimeric) (human, UniProt P10747 19-152); assay: binding to dimeric Fc fusions of CD28 family members
T6 construct: not shown: Fc part not described
T6 sequence (P10747 19-152): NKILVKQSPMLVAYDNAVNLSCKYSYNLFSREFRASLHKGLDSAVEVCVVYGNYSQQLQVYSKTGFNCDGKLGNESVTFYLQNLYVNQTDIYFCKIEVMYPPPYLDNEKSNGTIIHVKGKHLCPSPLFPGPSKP
Procedure: (§2) To further assess the specificity of the anti-ICOS antibodies, the antibodies were screened for binding to additional members of the CD28 protein family (CD28, BTLA, PD-1 and CTLA-4). […] Specifically, binding to Fc fusions (of CD28, BTLA, PD-1 and CTLA-4) in dimeric forms was evaluated, and no binding was observed. For a subset of the CD28 family members, mouse or human protein was over-expressed on the surface of HEK293 and CHOK1 cells. No binding of antibody above background relative to untransduced parental cells was observed.

[7] = target: T7, mouse CD28 Fc fusion (dimeric) (mouse, UniProt P31041 20-150); assay: as above
T7 construct: not shown: Fc part not described
T7 sequence (looked up): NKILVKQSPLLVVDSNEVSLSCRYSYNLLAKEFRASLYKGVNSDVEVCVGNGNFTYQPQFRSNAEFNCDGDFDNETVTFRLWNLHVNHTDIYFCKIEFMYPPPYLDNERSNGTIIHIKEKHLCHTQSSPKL
Procedure: as §2

[8] = target: T8, human BTLA Fc fusion (dimeric) (human, UniProt Q7Z6A9 31-157); assay: as above
T8 construct: not shown: Fc part not described
T8 sequence (looked up): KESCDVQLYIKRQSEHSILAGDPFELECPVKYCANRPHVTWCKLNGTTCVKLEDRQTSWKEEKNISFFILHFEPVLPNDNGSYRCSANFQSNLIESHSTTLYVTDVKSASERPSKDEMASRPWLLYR
Procedure: as §2

[9] = target: T9, mouse BTLA Fc fusion (dimeric) (mouse, UniProt Q7TSA3 30-183); assay: as above
T9 construct: not shown: Fc part not described
T9 sequence (looked up): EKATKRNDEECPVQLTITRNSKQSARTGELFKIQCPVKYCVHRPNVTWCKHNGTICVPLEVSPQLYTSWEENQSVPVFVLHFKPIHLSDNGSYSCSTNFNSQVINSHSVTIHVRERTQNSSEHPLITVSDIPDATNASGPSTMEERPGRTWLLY
Procedure: as §2

[10] = target: T10, human PD-1 Fc fusion (dimeric) (human, UniProt Q15116 25-167); assay: as above
T10 construct: not shown: Fc part not described
T10 sequence (Q15116 25-167): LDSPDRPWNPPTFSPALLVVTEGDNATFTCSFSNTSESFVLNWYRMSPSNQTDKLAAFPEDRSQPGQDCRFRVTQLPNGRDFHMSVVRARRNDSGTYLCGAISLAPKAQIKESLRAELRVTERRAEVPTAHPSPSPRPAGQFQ
Procedure: as §2

[11] = target: T11, mouse PD-1 Fc fusion (dimeric) (mouse, UniProt Q02242 25-167); assay: as above
T11 construct: not shown: Fc part not described
T11 sequence (looked up): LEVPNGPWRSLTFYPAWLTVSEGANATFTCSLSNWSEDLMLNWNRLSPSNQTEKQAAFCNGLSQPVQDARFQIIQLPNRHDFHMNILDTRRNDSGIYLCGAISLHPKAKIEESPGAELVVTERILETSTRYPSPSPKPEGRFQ
Procedure: as §2

[12] = target: T12, human CTLA-4 Fc fusion (dimeric) (human, UniProt P16410 37-162); assay: as above
T12 construct: not shown: Fc part not described
T12 sequence (looked up): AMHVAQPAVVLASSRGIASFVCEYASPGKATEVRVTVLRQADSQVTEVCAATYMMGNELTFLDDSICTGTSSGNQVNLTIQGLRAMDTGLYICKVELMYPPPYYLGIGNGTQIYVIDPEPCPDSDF
Procedure: as §2

[13] = target: T13, mouse CTLA-4 Fc fusion (dimeric) (mouse, UniProt P09793 36-162); assay: as above
T13 construct: not shown: Fc part not described
Procedure: as §2

[14] = target: T14, monovalent, heterodimeric human ICOS-Fc (human); assay: BLI (Octet RED96), IgG vs monovalent heterodimeric ICOS-Fc
T14 construct: Make-up of the heterodimer is not described; also called Monomeric hICOS; monomeric form of human ICOS; not shown: The human IgG1 Fc fused to ICOS, and the partner Fc chain of the heterodimer
T14 chain: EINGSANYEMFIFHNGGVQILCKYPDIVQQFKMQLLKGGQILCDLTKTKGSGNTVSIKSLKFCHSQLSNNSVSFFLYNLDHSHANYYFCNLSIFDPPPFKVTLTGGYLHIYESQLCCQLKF
Procedure: (§3) Affinity measurements were conducted using Bio-Layer Interferometry (BLI) technology (ForteBio Octet® RED96). The monovalent affinities were generated with IgG versions of the antibodies with monovalent, heterodimeric forms of the ICOS receptor. The avid affinities were generated using full-length IgGs against homodimeric forms of the ICOS receptor.

[15] = target: T4, human ICOS-hFc (homodimeric, bivalent); assay: BLI (Octet RED96), full-length IgG vs homodimeric ICOS-Fc (avid)
Procedure: as §3

[16] = target: T4, human ICOS-hFc (homodimeric, bivalent); assay: BLI (Octet RED96), full-length IgG vs homodimeric ICOS-Fc (avid); bivalent (homodimeric) hICOS, avid; not monomeric hICOS
Procedure: as §3

[17] = target: T14, monovalent, heterodimeric human ICOS-Fc; assay: BLI (Octet RED96), monovalent, monomeric ICOS; mean ± SEM of 6 experiments
Procedure: (§4) The affinity of a humanized antibody having the variable regions of 37A10S713 for monomeric forms of ICOS from human, cynomolgus monkey and rat was measured by Bio-Layer Interferometry (BLI) technology (ForteBio Octet® RED96) and KD's are shown in Table 5. […] Functionality of binding was confirmed by assessing potency of inducing proliferation of primary CD4+ T cells isolated from each species.

[18] = target: T15, monomeric form of cynomolgus monkey ICOS (cynomolgus monkey, UniProt Q9Y6W8 21-140 (human entry), limits assumed); assay: as above
T15 chain: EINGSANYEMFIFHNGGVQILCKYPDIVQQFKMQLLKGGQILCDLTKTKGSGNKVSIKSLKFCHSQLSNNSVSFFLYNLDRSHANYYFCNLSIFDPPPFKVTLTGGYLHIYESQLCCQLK
Procedure: as §4

[19] = target: T16, monomeric form of rat ICOS (rat, UniProt Q9R1T7 21-145, limits assumed); assay: as above
T16 sequence: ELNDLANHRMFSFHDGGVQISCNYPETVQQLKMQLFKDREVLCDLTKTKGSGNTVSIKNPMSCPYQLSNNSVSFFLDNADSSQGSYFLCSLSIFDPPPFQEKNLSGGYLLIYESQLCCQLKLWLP
Procedure: as §4

B1: 2M19 (antibody, V domains shown)
VH: EVQLQQSGAELVRSGASVKLSCTTSAFNIIDYYMHWVIQRPEQGLEWIAWIDPENGDPEYAPKFQDKATMTTDTSSNTAYLQLSSLTSEDTAVYYCTAWRGFAYWGQGTLVTVSA
VL: DVVMTQTPLSLPVSLGDQASISCRSSQSLVHSNGNTYLHWYLQKPGQSPKLLIYKVSNRFSGVPDRFSGSGSGTDFTLKISRVEAEDLGVYFCSQSIHVPPTFGGGTKLEIK
notes: Purified mouse monoclonal from a hybridoma; also called anti-ICOS mAb 2M19
Q: Does B1 bind [1]?
A: binds

B2: 2M13 (antibody, V domains shown)
VH: EVQLQQSGAELVRPGAVVKLSCKASGFDIKDYYMHWVQQRPEQGLEWIGWIDPENGNAVYDPQFQGKASITADTSSNTAYLQLSSLTSEDTAVYYCASDYYGSKGYLDVWGAGTTVTVSS
VL: QIVLTQSPTIMSASPGEKVTITCSASSSVSYMHWFQQKPGTSPKLWIYSTSNLASGVPARFGGSRSGTSYSLTISRMEAEDAATYYCQQRSSYPFTFGSGTKLEIK
notes: Purified mouse monoclonal from a hybridoma; also called anti-ICOS antibody (2M13); anti-ICOS mAb 2M13
Q: Does B2 bind [1]?
A: binds

B3: 35A9 (antibody, V domains shown)
VH: EVQLVESGGGLVKPGGSLKLSCAASGFTFSDYWMDWVRQAPGKGLEWVGNIDEDGSIAEYSPFVKGRFTISRDNVKNTLYLQMNSVKSEDTATYYCSRWGRFAFDSWGQGTLVTVSS
VL: DIVMTQSPSSLAVSAGDRVTINCKSSQSLLSGSFNYLTWYQQKTGQAPKLLIFYASTRHTGVPDRFMGSGSGTDFTLTINSFQTEDLGDYYCHHHYNAPPTFGPGTKLELR
notes: Armenian hamster monoclonal tested as IgG; also called hamster anti-ICOS 35A9
Q: Does B3 bind [2]?
A: binds

Q: Does B3 bind [3]?
A: binds

Q: And the Kd [4]?
A: < 0.001 nM

Q: What about the koff [4] of the same binder?
A: < 1e-07 s⁻¹

Q: And the kon [4]?
A: 1.01e+06 M⁻¹ s⁻¹

Q: And the Kd [5]?
A: < 0.001 nM

Q: And the koff [5]?
A: < 1e-07 s⁻¹

Q: And the kon [5]?
A: 740000 M⁻¹ s⁻¹

Q: Does B3 bind [6]?
A: no binding

Q: Does B3 bind [7]?
A: no binding

Q: Does B3 bind [8]?
A: no binding

Q: Does B3 bind [9]?
A: no binding

Q: Does B3 bind [10]?
A: no binding

Q: Does B3 bind [11]?
A: no binding

Q: Does B3 bind [12]?
A: no binding

Q: Does B3 bind [13]?
A: no binding

Q: And the Kd [14]?
A: 2.45 nM

Q: What about the koff [14] of the same binder?
A: 0.000438 s⁻¹

Q: And the kon [14]?
A: 178000 M⁻¹ s⁻¹

Q: What about the koff [15] of the same binder?
A: < 1e-07 s⁻¹

Q: What about the kon [15] of the same binder?
A: 625000 M⁻¹ s⁻¹

Q: What about the Kd [16] of the same binder?
A: < 0.001 nM

B4: 37A10S713 (antibody, V domains shown)
VH: EVQLVESGGGLVQPGGSLRLSCAASGFTFSDYWMDWVRQAPGKGLVWVSNIDEDGSITEYSPFVKGRFTISRDNAKNTLYLQMNSLRAEDTAVYYCTRWGRFGFDSWGQGTLVTVSS
VL: DIVMTQSPDSLAVSLGERATINCKSSQSLLSGSFNYLTWYQQKPGQPPKLLIFYASTRHTGVPDRFSGSGSGTDFTLTISSLQAEDVAVYYCHHHYNAPPTFGPGTKVDIK
notes: also called humanized antibody having the variable regions of 37A10S713; 37A10S713-hIgG1
Q: Which Kd [17] does the source give for B4 here?
A: 1.5 nM

Q: What about the Kd [18] of the same binder?
A: 0.66 nM

Q: What about the Kd [19] of the same binder?
A: 7.2 nM

Reference: patent US20180371091A1 (JOUNCE THERAPEUTICS, published 2018)
